Data reported in patent US20100260668A1 (published 2010).

Target: T1, DLL4 (DLL ECD His tag, R&D 1506-D4-050) (UniProt Q9NR61 27-529)
T1 construct: extracellular domain; bought
Experiment: BIACORE (SPR), DVD-Ig against DLL4

Binder | Kd | koff | kon
DVD451 (bispecific antibody, human IgG1, kappa, L234A L235A, DVD-Ig; N-term; VD DLL4 (AB069), C-term; VD VEGF (AB071); HC linker long, LC linker long; also called DVD-Ig DVD451; DVD451H) heavy: not shown light: DIVMTQSPDSLAVSLGERATISCRASESVDNYGISFMKWFQQKPGQPPKLLIYAASNQGSGVPDRFSGSGSGTDFTLTISSLQAEDVAVYYCQQSKEVPWTFGGGTKVEIKRTVAAPSVFIFPPDIQMTQSPSSLSASVGDRVTITCRASQVIRRSLAWYQQKPGKAPKLLIYAASNLASGVPSRFSGSGSGTDFTLTISSLQPEDFATYYCQQSNTSPLTFGQGTKVEIKRTVAAPSVFIFPPSDEQLKSGTASVVCLLNNFYPREAKVQWKVDNALQSGNSQESVTEQDSKDSTYSLSSTLTLSKADYEKHKVYACEVTHQGLSSPVTKSFNRGEC | 14 nM | 0.001 s⁻¹ | 71700 M⁻¹ s⁻¹
DVD463 (bispecific antibody, human IgG1, kappa, DVD-Ig; N-term; VD DLL4 (AB069), C-term; VD VEGF (AB071); HC linker short, LC linker long; also called DVD-Ig DVD463; DVD463H) heavy: not shown light: DIVMTQSPDSLAVSLGERATISCRASESVDNYGISFMKWFQQKPGQPPKLLIYAASNQGSGVPDRFSGSGSGTDFTLTISSLQAEDVAVYYCQQSKEVPWTFGGGTKVEIKRTVAAPSVFIFPPDIQMTQSPSSLSASVGDRVTITCRASQVIRRSLAWYQQKPGKAPKLLIYAASNLASGVPSRFSGSGSGTDFTLTISSLQPEDFATYYCQQSNTSPLTFGQGTKVEIKRTVAAPSVFIFPPSDEQLKSGTASVVCLLNNFYPREAKVQWKVDNALQSGNSQESVTEQDSKDSTYSLSSTLTLSKADYEKHKVYACEVTHQGLSSPVTKSFNRGEC | 3.82 nM | 0.000472 s⁻¹ | 123000 M⁻¹ s⁻¹
DVD468 (bispecific antibody, human IgG1, kappa, DVD-Ig; N-term; VD VEGF (AB071), C-term; VD DLL4 (AB015); HC linker short, LC linker short; also called DVD-Ig DVD468; DVD468H) heavy: not shown light: DIQMTQSPSSLSASVGDRVTITCRASQVIRRSLAWYQQKPGKAPKLLIYAASNLASGVPSRFSGSGSGTDFTLTISSLQPEDFATYYCQQSNTSPLTFGQGTKVEIKRTVAAPDIQMTQSPSSLSASVGDRVTITCRASQDVSTAVAWYQQKPGKAPKLLIYSASFLYSGVPSRFSGSGSGTDFTLTISSLQPEDFATTYYCQQSYTGTVTFGQGTKVEIKRTVAAPSVFIFPPSDEQLKSGTASVVCLLNNFYPREAKVQWKVDNALQSGNSQESVTEQDSKDSTYSLSSTLTLSKADYEKHKVYACEVTHQGLSSPVTKSFNRGEC | 3.76 nM | 0.000219 s⁻¹ | 58200 M⁻¹ s⁻¹
DVD445 (bispecific antibody, human IgG1, kappa, DVD-Ig; N-term; VD DLL4 (AB069), C-term; VD VEGF (AB071); HC linker short, LC linker short; also called DVD-Ig DVD445; DVD445H) heavy: not shown light: DIVMTQSPDSLAVSLGERATISCRASESVDNYGISFMKWFQQKPGQPPKLLIYAASNQGSGVPDRFSGSGSGTDFTLTISSLQAEDVAVYYCQQSKEVPWTFGGGTKVEIKRTVAAPDIQMTQSPSSLSASVGDRVTITCRASQVIRRSLAWYQQKPGKAPKLLIYAASNLASGVPSRFSGSGSGTDFTLTISSLQPEDFATYYCQQSNTSPLTFGQGTKVEIKRTVAAPSVFIFPPSDEQLKSGTASVVCLLNNFYPREAKVQWKVDNALQSGNSQESVTEQDSKDSTYSLSSTLTLSKADYEKHKVYACEVTHQGLSSPVTKSFNRGEC | 5.01 nM | 0.000646 s⁻¹ | 129000 M⁻¹ s⁻¹
DVD457 (bispecific antibody, human IgG1, kappa, L234A L235A, DVD-Ig; N-term; VD DLL4 (AB069), C-term; VD VEGF (AB071); HC linker long, LC linker short; also called DVD-Ig DVD457; DVD457H) heavy: not shown light: DIVMTQSPDSLAVSLGERATISCRASESVDNYGISFMKWFQQKPGQPPKLLIYAASNQGSGVPDRFSGSGSGTDFTLTISSLQAEDVAVYYCQQSKEVPWTFGGGTKVEIKRTVAAPDIQMTQSPSSLSASVGDRVTITCRASQVIRRSLAWYQQKPGKAPKLLIYAASNLASGVPSRFSGSGSGTDFTLTISSLQPEDFATYYCQQSNTSPLTFGQGTKVEIKRTVAAPSVFIFPPSDEQLKSGTASVVCLLNNFYPREAKVQWKVDNALQSGNSQESVTEQDSKDSTYSLSSTLTLSKADYEKHKVYACEVTHQGLSSPVTKSFNRGEC | 4.82 nM | 0.000578 s⁻¹ | 120000 M⁻¹ s⁻¹

Continued, values first:

Kd | koff | kon | Binder
0.237 nM | 6.35e-05 s⁻¹ | 267000 M⁻¹ s⁻¹ | DVD491 (bispecific antibody, human IgG1, kappa, DVD-Ig; N-term; VD DLL4 (AB072), C-term; VD VEGF (AB071); HC linker short, LC linker short; also called DVD-Ig DVD491; DVD491H) heavy: not shown light: DIQMTQSSSYLSVSLGGRVTITCKASDHINNWLAWYQQKPGNAPRLLISGATSLETGVPSRFSGSGSGKDYTLSITSLQTEDVATYYCQQYWSIPLTFGAGTKLELKRTVAAPDIQMTQSPSSLSASVGDRVTITCRASQVIRRSLAWYQQKPGKAPKLLIYAASNLASGVPSRFSGSGSGTDFTLTISSLQPEDFATYYCQQSNTSPLTFGQGTKVEIKRTVAAPSVFIFPPSDEQLKSGTASVVCLLNNFYPREAKVQWKVDNALQSGNSQESVTEQDSKDSTYSLSSTLTLSKADYEKHKVYACEVTHQGLSSPVTKSFNRGEC
0.192 nM | 4.72e-05 s⁻¹ | 246000 M⁻¹ s⁻¹ | DVD503 (bispecific antibody, human IgG1, kappa, DVD-Ig; N-term; VD DLL4 (AB072), C-term; VD VEGF (AB071); HC linker long, LC linker short; also called DVD-Ig DVD503; DVD503H) heavy: not shown light: DIQMTQSSSYLSVSLGGRVTITCKASDHINNWLAWYQQKPGNAPRLLISGATSLETGVPSRFSGSGSGKDYTLSITSLQTEDVATYYCQQYWSIPLTFGAGTKLELKRTVAAPDIQMTQSPSSLSASVGDRVTITCRASQVIRRSLAWYQQKPGKAPKLLIYAASNLASGVPSRFSGSGSGTDFTLTISSLQPEDFATYYCQQSNTSPLTFGQGTKVEIKRTVAAPSVFIFPPSDEQLKSGTASVVCLLNNFYPREAKVQWKVDNALQSGNSQESVTEQDSKDSTYSLSSTLTLSKADYEKHKVYACEVTHQGLSSPVTKSFNRGEC
0.266 nM | 7.12e-05 s⁻¹ | 268000 M⁻¹ s⁻¹ | DVD497 (bispecific antibody, human IgG1, kappa, DVD-Ig; N-term; VD DLL4 (AB072), C-term; VD VEGF (AB071); HC linker long, LC linker long; also called DVD-Ig DVD497; DVD497H) heavy: not shown light: DIQMTQSSSYLSVSLGGRVTITCKASDHINNWLAWYQQKPGNAPRLLISGATSLETGVPSRFSGSGSGKDYTLSITSLQTEDVATYYCQQYWSIPLTFGAGTKLELKRTVAAPSVFIFPPDIQMTQSPSSLSASVGDRVTITCRASQVIRRSLAWYQQKPGKAPKLLIYAASNLASGVPSRFSGSGSGTDFTLTISSLQPEDFATYYCQQSNTSPLTFGQGTKVEIKRTVAAPSVFIFPPSDEQLKSGTASVVCLLNNFYPREAKVQWKVDNALQSGNSQESVTEQDSKDSTYSLSSTLTLSKADYEKHKVYACEVTHQGLSSPVTKSFNRGEC
0.153 nM | 3.52e-05 s⁻¹ | 230000 M⁻¹ s⁻¹ | DVD509 (bispecific antibody, human IgG1, kappa, DVD-Ig; N-term; VD DLL4 (AB072), C-term; VD VEGF (AB071); HC linker short, LC linker long; also called DVD-Ig DVD509; DVD509H) heavy: not shown light: DIQMTQSSSYLSVSLGGRVTITCKASDHINNWLAWYQQKPGNAPRLLISGATSLETGVPSRFSGSGSGKDYTLSITSLQTEDVATYYCQQYWSIPLTFGAGTKLELKRTVAAPSVFIFPPDIQMTQSPSSLSASVGDRVTITCRASQVIRRSLAWYQQKPGKAPKLLIYAASNLASGVPSRFSGSGSGTDFTLTISSLQPEDFATYYCQQSNTSPLTFGQGTKVEIKRTVAAPSVFIFPPSDEQLKSGTASVVCLLNNFYPREAKVQWKVDNALQSGNSQESVTEQDSKDSTYSLSSTLTLSKADYEKHKVYACEVTHQGLSSPVTKSFNRGEC
1.77 nM | 0.00168 s⁻¹ | 947000 M⁻¹ s⁻¹ | DVD521 (bispecific antibody, human IgG1, kappa, lambda, L234A L235A, DVD-Ig; N-term; VD DLL4 (AB073), C-term; VD VEGF (AB071); HC linker long, LC linker long; also called DVD-Ig DVD521; DVD521H) heavy: not shown light: QAVVTQESALTTSPGETVTLTCRSSTGAVTTSNYANWVQEKPDHLFTGLIGGTNNRAPGVPARFSGSLIGDKAALTITGAQTEDEAIYFCALWYSNHWVFGGGTKLTVLGQPKAAPSVTLFPPDIQMTQSPSSLSASVGDRVTITCRASQVIRRSLAWYQQKPGKAPKLLIYAASNLASGVPSRFSGSGSGTDFTLTISSLQPEDFATYYCQQSNTSPLTFGQGTKVEIKRTVAAPSVFIFPPSDEQLKSGTASVVCLLNNFYPREAKVQWKVDNALQSGNSQESVTEQDSKDSTYSLSSTLTLSKADYEKHKVYACEVTHQGLSSPVTKSFNRGEC
2.22 nM | 0.00133 s⁻¹ | 598000 M⁻¹ s⁻¹ | DVD533 (bispecific antibody, human IgG1, kappa, lambda, L234A L235A, DVD-Ig; N-term; VD DLL4 (AB073), C-term; VD VEGF (AB071); HC linker short, LC linker long; also called DVD-Ig DVD533; DVD533H) heavy: not shown light: QAVVTQESALTTSPGETVTLTCRSSTGAVTTSNYANWVQEKPDHLFTGLIGGTNNRAPGVPARFSGSLIGDKAALTITGAQTEDEAIYFCALWYSNHWVFGGGTKLTVLGQPKAAPSVTLFPPDIQMTQSPSSLSASVGDRVTITCRASQVIRRSLAWYQQKPGKAPKLLIYAASNLASGVPSRFSGSGSGTDFTLTISSLQPEDFATYYCQQSNTSPLTFGQGTKVEIKRTVAAPSVFIFPPSDEQLKSGTASVVCLLNNFYPREAKVQWKVDNALQSGNSQESVTEQDSKDSTYSLSSTLTLSKADYEKHKVYACEVTHQGLSSPVTKSFNRGEC
1.51 nM | 0.0016 s⁻¹ | 1.06e+06 M⁻¹ s⁻¹ | DVD515 (bispecific antibody, human IgG1, kappa, DVD-Ig; N-term; VD DLL4 (AB073), C-term; VD VEGF (AB071); HC linker short, LC linker short; also called DVD-Ig DVD515; DVD515H) heavy: not shown light: QAVVTQESALTTSPGETVTLTCRSSTGAVTTSNYANWVQEKPDHLFTGLIGGTNNRAPGVPARFSGSLIGDKAALTITGAQTEDEAIYFCALWYSNHWVFGGGTKLTVLGQPKAAPDIQMTQSPSSLSASVGDRVTITCRASQVIRRSLAWYQQKPGKAPKLLIYAASNLASGVPSRFSGSGSGTDFTLTISSLQPEDFATYYCQQSNTSPLTFGQGTKVEIKRTVAAPSVFIFPPSDEQLKSGTASVVCLLNNFYPREAKVQWKVDNALQSGNSQESVTEQDSKDSTYSLSSTLTLSKADYEKHKVYACEVTHQGLSSPVTKSFNRGEC
1.9 nM | 0.00109 s⁻¹ | 574000 M⁻¹ s⁻¹ | DVD527 (bispecific antibody, human IgG1, kappa, DVD-Ig; N-term; VD DLL4 (AB073), C-term; VD VEGF (AB071); HC linker long, LC linker short; also called DVD-Ig DVD527; DVD527H) heavy: not shown light: QAVVTQESALTTSPGETVTLTCRSSTGAVTTSNYANWVQEKPDHLFTGLIGGTNNRAPGVPARFSGSLIGDKAALTITGAQTEDEAIYFCALWYSNHWVFGGGTKLTVLGQPKAAPDIQMTQSPSSLSASVGDRVTITCRASQVIRRSLAWYQQKPGKAPKLLIYAASNLASGVPSRFSGSGSGTDFTLTISSLQPEDFATYYCQQSNTSPLTFGQGTKVEIKRTVAAPSVFIFPPSDEQLKSGTASVVCLLNNFYPREAKVQWKVDNALQSGNSQESVTEQDSKDSTYSLSSTLTLSKADYEKHKVYACEVTHQGLSSPVTKSFNRGEC

Target: VEGF (VEGF 1-165 aa, R&D Systems 293-VE-010) (UniProt P15692 27-191)
Sequence (P15692 other isoform, or with tags, fused parts or gaps limits assumed): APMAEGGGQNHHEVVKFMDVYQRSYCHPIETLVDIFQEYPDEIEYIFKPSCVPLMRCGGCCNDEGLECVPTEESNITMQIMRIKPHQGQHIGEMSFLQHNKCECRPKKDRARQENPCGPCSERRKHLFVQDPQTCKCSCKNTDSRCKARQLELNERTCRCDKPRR
Experiment: Direct bind ELISA, VEGF coated on plate;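 note: ELISA screening of antibodies for binding to the plate-coated target antigen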

EC50 | Binder
1810 nM | DVD467 (bispecific antibody, IgG1, DVD-Ig, outer AB015 / inner AB071; HC linker short, LC linker short; also called DVD467H; DVD467L) VH: EVQLVESGGGLVQPGGSLRLSCAASGFTFTDNWISWVRQAPGKGLEWVGYISPNSGFTYYADSVKGRFTISADTSKNTAYLQMNSLRAEDTAVYYCARDNFGGYFDYWGQGTLVTVSSASTKGPEVQLVESGGGLVQPGGSLRLSCAASGFTINASWIHWVRQAPGKGLEWVGAIYPYSGYTNYADSVKGRFTISADTSKNTAYLQMNSLRAEDTAVYYCARWGHSTSPWAMDYWGQGTLVTVSS VL: DIQMTQSPSSLSASVGDRVTITCRASQDVSTAVAWYQQKPGKAPKLLIYSASFLYSGVPSRFSGSGSGTDFTLTISSLQPEDFATTYYCQQSYTGTVTFGQGTKVEIKRTVAAPDIQMTQSPSSLSASVGDRVTITCRASQVIRRSLAWYQQKPGKAPKLLIYAASNLASGVPSRFSGSGSGTDFTLTISSLQPEDFATYYCQQSNTSPLTFGQGTKVEIKR
